Reference: publication PMC6430397, “The pharmacological properties of 3-arm or 4-arm DOTA constructs for conjugation to α-melanocyte-stimulating hormone analogues for melanoma imaging” (PLoS ONE, 2019)
Like-named read-outs stand apart in the source and are kept apart here.

Assay: Biological distribution in B16-F1 melanoma-bearing mice
Format: in vivo, mouse
Settings: male, C57BL6, mouse, in vivo, iv, 37 kBq/mouse, total radioactivity, mean, n = 3 mice; for tissue uptake at 10 min / tissue uptake dose at 10 min: 10 min after i.v. 37 kBq/mouse; for tissue uptake at 0.5 h / tissue uptake dose at 0.5 h: 30 min after i.v. 37 kBq/mouse; for tissue uptake at 1 h / tissue uptake dose at 1 h: 60 min after i.v. 37 kBq/mouse; for tissue uptake at 2 h / tissue uptake dose at 2 h: 120 min after i.v. 37 kBq/mouse; for tissue uptake at 3 h / tissue uptake dose at 3 h: 180 min after i.v. 37 kBq/mouse
Procedure: C57BL6 male mice (5 weeks old) were transplanted with B16-F1 cells (5 × 10^5 cells/100 μL) into the thigh of the mice. […] The mice were housed and continuously monitored each day for 2 weeks in a 12-hour light/12-hour dark cycle with free access to food and water. The tumor size reached 8.7 ± 2.8 mm at 2 weeks after transplant of cells. Two mice with tumor sizes of 13 and 15 mm were excluded from our experiments. Mice with a tumor size <10 mm were fasted with no food overnight with water supplied ad libitum before experiments.
For biological distribution studies, B16-F1-bearing mice were administered ^111In-labeled 3-arm or 4-arm DOTA-α-MSH via the tail vein (37 kBq/mouse). At 10, 30, 60, 120, and 180 min after injection, the mice were euthanized under isoflurane (n = 3 per time point), and the following tissues were collected: brain, lung, heart, stomach, liver, small intestine, large intestine, kidney, blood, muscle, and B16-F1 melanoma. Tissues were weighed, and radioactivity was quantified using an automated γ-ray counter to calculate the percent injected dose (%ID) or percent injected dose per gram of tissue (%ID/g).
For SPECT imaging, ^111In-labeled 3-arm or 4-arm DOTA-α-MSH was injected into the tail vein of four B16-F1-bearing mice in total (37 MBq/mouse). For SPECT imaging, acquisition was started at 10 min after injection and continued every 10 min for 180 min. The data were reconstructed using the ordered subset expectation maximization method with 16 subsets and six iterations including no scatter and attenuation correction. The voxel size was set to 0.8×0.8×0.8 mm. Post-reconstruction smoothing filtering was applied using a 1.0-mm Gaussian filter. […] In these images, three to five regions of interest were placed over the kidney, muscle, and B16-F1 melanoma in which accumulation could be seen, and the time activity curve of each was obtained as the %ID/g.

[1] = read-out: Biological distribution, Blood
[2] = read-out: Biological distribution, Brain
[3] = read-out: Biological distribution, Heart
[4] = read-out: Biological distribution, Kidney
[5] = read-out: Biological distribution, Large intestine
[6] = read-out: Biological distribution, Liver
[7] = read-out: Biological distribution, Lung
[8] = read-out: Biological distribution, Muscle
[9] = read-out: Biological distribution, Small intestine
[10] = read-out: Biological distribution, Stomach
[11] = B16-F1 melanoma, read-out: Biological distribution, Melanoma

With `CSCC[C@H](NC(=O)[C@H](CO)NC(=O)[C@H](Cc1ccc(O)cc1)NC(=O)[C@H](CO)NC(C)=O)C(=O)N[C@@H](CCC(=O)O)C(=O)N[C@@H](Cc1c[nH]cn1)C(=O)N[C@@H](Cc1ccccc1)C(=O)N[C@@H](CCCNC(=N)N)C(=O)N[C@@H](Cc1c[nH]c2ccccc12)C(=O)NCC(=O)N[C@@H](CCCCNC(=S)Nc1ccc(C[C@H]2CN(CC(=O)O)CCN(CC(=O)O)CCN(CC(=O)O)CCN2CC(=O)O)cc1)C(=O)N1CCC[C@H]1C(=O)N[C@H](C(=O)O)C(C)C` [^111In-labeled 4-arm DOTA-α-MSH, metal not drawn] as the compound, how does the tissue uptake at 10 min [1] read?
The tissue uptake at 10 min was 4.03 %ID/g.

And the tissue uptake at 10 min [2]?
The tissue uptake at 10 min was 0.04 %ID/g.

What about the tissue uptake at 10 min [3] of the same compound?
Its tissue uptake at 10 min is 0.55 %ID/g.

What about the tissue uptake at 10 min [4] of the same compound?
The tissue uptake at 10 min was 17.1 %ID/g.

What about the tissue uptake dose at 10 min [5] of the same compound?
Its tissue uptake dose at 10 min is 0.03 %ID.

What about the tissue uptake at 10 min [6] of the same compound?
The tissue uptake at 10 min was 2.52 %ID/g.

What about the tissue uptake at 10 min [7] of the same compound?
Its tissue uptake at 10 min is 0.42 %ID/g.

And the tissue uptake at 10 min [8]?
The tissue uptake at 10 min was 0.1 %ID/g.

What about the tissue uptake dose at 10 min [9] of the same compound?
Its tissue uptake dose at 10 min is 0.05 %ID.

What about the tissue uptake dose at 10 min [10] of the same compound?
The tissue uptake dose at 10 min was 0.09 %ID.

And the tissue uptake at 0.5 h [1]?
The tissue uptake at 0.5 h was 2.02 %ID/g.

What about the tissue uptake at 0.5 h [2] of the same compound?
Its tissue uptake at 0.5 h is 0.03 %ID/g.

And the tissue uptake at 0.5 h [3]?
Its tissue uptake at 0.5 h is 0.46 %ID/g.

What about the tissue uptake at 0.5 h [4] of the same compound?
Its tissue uptake at 0.5 h is 13.3 %ID/g.

And the tissue uptake dose at 0.5 h [5]?
Its tissue uptake dose at 0.5 h is 0.03 %ID.

And the tissue uptake at 0.5 h [6]?
Its tissue uptake at 0.5 h is 1.45 %ID/g.

And the tissue uptake at 0.5 h [7]?
The tissue uptake at 0.5 h was 0.52 %ID/g.

And the tissue uptake at 0.5 h [8]?
Its tissue uptake at 0.5 h is 0.12 %ID/g.

What about the tissue uptake dose at 0.5 h [9] of the same compound?
The tissue uptake dose at 0.5 h was 0.04 %ID.

What about the tissue uptake dose at 0.5 h [10] of the same compound?
Its tissue uptake dose at 0.5 h is 0.09 %ID.

What about the tissue uptake at 1 h [1] of the same compound?
The tissue uptake at 1 h was 1.01 %ID/g.

What about the tissue uptake at 1 h [2] of the same compound?
Its tissue uptake at 1 h is 0.03 %ID/g.

What about the tissue uptake at 1 h [3] of the same compound?
Its tissue uptake at 1 h is 0.38 %ID/g.

And the tissue uptake at 1 h [4]?
The tissue uptake at 1 h was 8.12 %ID/g.

And the tissue uptake dose at 1 h [5]?
The tissue uptake dose at 1 h was 0.04 %ID.

What about the tissue uptake at 1 h [6] of the same compound?
Its tissue uptake at 1 h is 1.18 %ID/g.

What about the tissue uptake at 1 h [7] of the same compound?
Its tissue uptake at 1 h is 0.22 %ID/g.

What about the tissue uptake at 1 h [8] of the same compound?
The tissue uptake at 1 h was 0.08 %ID/g.

What about the tissue uptake dose at 1 h [9] of the same compound?
Its tissue uptake dose at 1 h is 0.03 %ID.

And the tissue uptake dose at 1 h [10]?
The tissue uptake dose at 1 h was 0.08 %ID.

And the tissue uptake at 2 h [1]?
The tissue uptake at 2 h was 0.11 %ID/g.

What about the tissue uptake at 2 h [2] of the same compound?
Its tissue uptake at 2 h is 0.02 %ID/g.

And the tissue uptake at 2 h [3]?
The tissue uptake at 2 h was 0.14 %ID/g.

What about the tissue uptake at 2 h [4] of the same compound?
Its tissue uptake at 2 h is 6.31 %ID/g.

What about the tissue uptake dose at 2 h [5] of the same compound?
The tissue uptake dose at 2 h was 0.03 %ID.

What about the tissue uptake at 2 h [6] of the same compound?
The tissue uptake at 2 h was 0.9 %ID/g.

And the tissue uptake at 2 h [7]?
The tissue uptake at 2 h was 0.13 %ID/g.

And the tissue uptake at 2 h [8]?
The tissue uptake at 2 h was 0.04 %ID/g.

What about the tissue uptake dose at 2 h [9] of the same compound?
Its tissue uptake dose at 2 h is 0.02 %ID.

What about the tissue uptake dose at 2 h [10] of the same compound?
Its tissue uptake dose at 2 h is 0.05 %ID.

And the tissue uptake at 3 h [1]?
Its tissue uptake at 3 h is 0.03 %ID/g.

What about the tissue uptake at 3 h [2] of the same compound?
The tissue uptake at 3 h was 0.01 %ID/g.

And the tissue uptake at 3 h [3]?
Its tissue uptake at 3 h is 0.05 %ID/g.

And the tissue uptake at 3 h [4]?
Its tissue uptake at 3 h is 5.19 %ID/g.

And the tissue uptake dose at 3 h [5]?
The tissue uptake dose at 3 h was 0.03 %ID.

And the tissue uptake at 3 h [6]?
Its tissue uptake at 3 h is 0.61 %ID/g.

What about the tissue uptake at 3 h [7] of the same compound?
The tissue uptake at 3 h was 0.06 %ID/g.

What about the tissue uptake at 3 h [8] of the same compound?
The tissue uptake at 3 h was 0.03 %ID/g.

What about the tissue uptake dose at 3 h [9] of the same compound?
The tissue uptake dose at 3 h was 0.02 %ID.

What about the tissue uptake dose at 3 h [10] of the same compound?
Its tissue uptake dose at 3 h is 0.05 %ID.

And the tissue uptake at 10 min [11]?
Its tissue uptake at 10 min is 2.22 %ID/g.

And the tissue uptake at 0.5 h [11]?
The tissue uptake at 0.5 h was 2.25 %ID/g.

And the tissue uptake at 1 h [11]?
The tissue uptake at 1 h was 3.34 %ID/g.

And the tissue uptake at 2 h [11]?
Its tissue uptake at 2 h is 4.52 %ID/g.

What about the tissue uptake at 3 h [11] of the same compound?
The tissue uptake at 3 h was 4.83 %ID/g.
